Where two headings read alike, the source gives them in different places.
What was measured:
Human CD122 [1] = molecular target: T1, Human CD122 (human, UniProt P14784 27-551); assay: cell-based or functional assay
T1 sequence: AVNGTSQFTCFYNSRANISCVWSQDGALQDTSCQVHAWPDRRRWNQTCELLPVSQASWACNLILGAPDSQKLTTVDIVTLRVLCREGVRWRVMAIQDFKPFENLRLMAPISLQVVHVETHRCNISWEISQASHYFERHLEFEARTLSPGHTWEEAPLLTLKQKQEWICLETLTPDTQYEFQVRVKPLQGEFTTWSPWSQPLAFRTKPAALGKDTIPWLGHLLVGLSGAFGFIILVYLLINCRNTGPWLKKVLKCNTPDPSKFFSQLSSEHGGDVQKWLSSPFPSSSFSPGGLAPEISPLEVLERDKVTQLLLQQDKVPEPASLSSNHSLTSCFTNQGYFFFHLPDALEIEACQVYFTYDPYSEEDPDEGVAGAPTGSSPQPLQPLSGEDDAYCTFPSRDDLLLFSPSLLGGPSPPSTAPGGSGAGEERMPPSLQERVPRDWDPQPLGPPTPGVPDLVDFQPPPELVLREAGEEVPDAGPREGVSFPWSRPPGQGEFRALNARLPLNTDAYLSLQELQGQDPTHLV

Human CD122 [2] = molecular target: T1, Human CD122; assay: flow cytometry (FACS) on huIL15Rβ-transfected CHO-K1 cells, anti-human IgG-FITC, GeoMFI
Description: (§1) Purified IgGs were tested in FACs for binding to human and rhesus CD122 expressed on CHO-K1 stable cell lines and CHO-K1 wild-type cells. The IgG samples were titrated in three-fold serial dilutions starting at 500 nM to […]. Binding of IgGs was detected with a mouse anti-human IgG conjugated to FITC. Results were analyzed by examining the Mean Fluorescence Intensity (MFI) of 10000 cells per sample in the BL-1 channel detector of a flow cytometer (AttuneTM NxT Acoustic Focusing Cytometer, Invitrogen/ ThermoFisher Scientific).

Rhesus CD122 [3] = molecular target: T2, Rhesus CD122 (rhesus monkey, UniProt Q38J85 27-551 (cynomolgus entry)); assay: flow cytometry (FACS) on rhIL15Rβ-transfected CHO-K1 cells, anti-human IgG-FITC, GeoMFI
T2 construct: also called rhCD122 on cells
T2 sequence: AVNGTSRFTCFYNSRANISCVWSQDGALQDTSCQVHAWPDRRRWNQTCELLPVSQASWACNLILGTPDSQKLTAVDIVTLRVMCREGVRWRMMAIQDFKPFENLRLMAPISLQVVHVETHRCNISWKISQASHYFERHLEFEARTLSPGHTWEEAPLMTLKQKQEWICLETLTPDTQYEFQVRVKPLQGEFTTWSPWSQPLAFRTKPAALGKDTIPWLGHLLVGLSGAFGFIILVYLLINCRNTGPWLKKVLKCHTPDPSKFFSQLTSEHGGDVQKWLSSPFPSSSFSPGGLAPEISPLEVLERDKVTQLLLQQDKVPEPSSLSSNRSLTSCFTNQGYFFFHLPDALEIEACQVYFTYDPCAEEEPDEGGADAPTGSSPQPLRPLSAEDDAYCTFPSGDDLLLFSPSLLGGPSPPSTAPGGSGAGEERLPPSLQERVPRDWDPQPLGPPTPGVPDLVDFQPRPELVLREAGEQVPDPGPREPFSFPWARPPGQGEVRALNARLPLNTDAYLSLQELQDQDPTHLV
Description: as §1

Human CD122 [4] = molecular target: T1, Human CD122; assay: flow cytometry (FACS) on huIL15Rβ-transfected CHO-K1 cells, anti-human IgG-FITC, GeoMFI; remark: listed apart in the source
Description: as §1

[5] = molecular target: T3, Human CD122 human Fc tagged recombinant protein (human, UniProt P14784 27-240); assay: Alphascreen epitope competition: unlabelled VillMAb-1 at log10 -1.9 to 2 nM against VillMab-1 binding to human CD122-Fc (self-competition); CPS (crosstalk-corrected)
T3 construct: also called human CD122-Fc; not shown: human Fc tag
T3 sequence: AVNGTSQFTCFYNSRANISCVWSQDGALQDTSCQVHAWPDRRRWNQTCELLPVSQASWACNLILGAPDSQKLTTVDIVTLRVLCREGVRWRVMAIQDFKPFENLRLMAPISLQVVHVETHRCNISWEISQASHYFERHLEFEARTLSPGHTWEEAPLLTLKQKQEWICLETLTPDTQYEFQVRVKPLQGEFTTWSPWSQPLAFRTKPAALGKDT

Rhesus CD122 [6] = molecular target: T2, Rhesus CD122; assay: flow cytometry (FACS) on rhIL15Rβ-transfected CHO-K1 cells, anti-human IgG-FITC, GeoMFI; remark: listed apart in the source
Description: as §1

B1: IgG1-MIKβ1 (humanized) (antibody, V domains shown)
VH: EVQLLESGGGLVQPGGSLRLSCAASGFSVTSYGVHWIRQAPGKGLEWLGVIWSGGSTDYNAAFISRLTISKDNSKNTVYFQMNSLQAEDTAIYYCARAGDYNYDGFAYWGQGTLVTVSS
VL: DIVLTQSPSSLSASVGDRVTITCSGSSSVSFMYWYQQRPGKAPRLLIYDTSNLASGVPSRFSGSGSGTSYTFTISSLQPEDIATYYCQQWSTYPLTFGQGTKVEVK
notes: also called VillMab-1; VillMAB-1
Human CD122 [1]
  IC50, IL-15-induced M07e cell proliferation: 9.79 µg/mL
Human CD122 [2]
  EC50 (read off the curve): ~900 pM
Rhesus CD122 [3]
  EC50 (read off the curve): ~600 pM
Human CD122 [4]
  EC50 (read off the curve): ~900 pM
[5]
  IC50 (read off the curve): ~2000 pM
Rhesus CD122 [6]
  EC50 (read off the curve): ~600 pM

— patent publication US20230357420A1 (VILLARIS THERAPEUTICS, published 2023)
